Values of other authors, collected in paper PMC6273919.

Target: NF-kappa-B p50 (Homo sapiens) (UniProt P19838)
Chain of UniProt P19838 (P19838 1-433): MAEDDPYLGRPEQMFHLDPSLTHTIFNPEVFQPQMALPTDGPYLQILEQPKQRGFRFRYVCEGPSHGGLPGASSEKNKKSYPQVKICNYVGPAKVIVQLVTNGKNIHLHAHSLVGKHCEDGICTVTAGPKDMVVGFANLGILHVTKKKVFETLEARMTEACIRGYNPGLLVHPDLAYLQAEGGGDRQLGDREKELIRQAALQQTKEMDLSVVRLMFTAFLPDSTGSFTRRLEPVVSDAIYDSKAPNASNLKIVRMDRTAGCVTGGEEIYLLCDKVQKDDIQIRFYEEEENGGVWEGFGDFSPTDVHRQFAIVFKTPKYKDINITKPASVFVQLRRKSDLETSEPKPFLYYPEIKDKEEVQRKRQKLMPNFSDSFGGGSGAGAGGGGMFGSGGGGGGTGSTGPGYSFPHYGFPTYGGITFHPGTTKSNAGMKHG

## Melittin (from UniProt P01501)
  Kd: 12 nM
